Where no end group is shown, it is not given here.
Assays:
[1] = test system: GLP/GIP/CT cyclase, RIN-m5F cells; assay: GLP/GIP/CT Cyclase (RIN) assay; assay type: cell-based, rat; conditions: cAMP, values without **
Protocol: GLP/GIP/CT Cyclase (RIN) Assay
Five μl of serially diluted peptides are transferred to the 384-well assay plate. Rat pancreas insulinoma cells (RIN-m5F) are detached from a tissue culture flask with Versene and washed once in buffer. Then RIN-m5F cells are resusupended in buffer at 2.5×10^6 cells/ml. Then 10 μl cells (2.5×10^4 cells) are added to all wells of the assay plate and cells are stimulated at room temperature in the dark for 30 minutes. The reaction is terminated with 10 μl of lysis buffer and incubated at room temperature for 4 hrs in the dark. cAMP content is measured using Perkin Elmer AlphaScreen™ cAMP assay kit and results are read on a Perkin Elmer Fusion fluorometer. The assay is completed in 384-well plates at 25 microliter volumes.

[2] = Plasma stability; assay type: in vitro ADME; conditions: 20 μg/mL in plasma, 37° C., 0-5 hours
Protocol: To assess stability, the compound of interest is spiked into plasma at a concentration of 20 μg/mL. It is incubated at 37° C. for 0, 1, 2 3, 4, 5 hours in triplicate. At each time point, MeOH is added to a 96 well microtiter plate and then sample is added in a ratio of 1 part sample to 4 parts MeOH to quench the digestion reaction. Samples are mixed with multi-channel pipette or liquid handler. The plate is then centrifuged for 10 minutes and placed in an autosampler kept at 10° C. Samples are then injected into a mass spectrometer (API 3000, Applied Biosystems) equipped with an autosampler (Leap HTC Pal) and HPLC pumps (Shimadzu LC-10ADVP).

[3] = target: T1, GLP-1 receptor, endogenous in RINm5f cells (rat (RIN-m5F are called rat pancreas …, UniProt P32301 22-463)); assay: cell-based or functional assay
T1 sequence (looked up): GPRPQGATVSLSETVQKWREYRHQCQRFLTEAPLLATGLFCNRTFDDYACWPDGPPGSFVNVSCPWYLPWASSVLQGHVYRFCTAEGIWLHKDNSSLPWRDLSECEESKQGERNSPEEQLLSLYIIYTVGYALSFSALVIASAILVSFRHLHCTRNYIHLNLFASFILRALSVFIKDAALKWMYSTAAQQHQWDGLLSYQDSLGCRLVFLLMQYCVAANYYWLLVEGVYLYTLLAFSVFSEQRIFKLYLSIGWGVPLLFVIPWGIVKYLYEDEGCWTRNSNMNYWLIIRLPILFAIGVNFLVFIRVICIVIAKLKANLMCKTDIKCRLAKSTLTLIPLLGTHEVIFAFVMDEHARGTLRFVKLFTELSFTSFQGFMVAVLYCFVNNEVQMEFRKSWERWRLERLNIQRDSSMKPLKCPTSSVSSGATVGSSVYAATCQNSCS

## CC[C@H](C)[C@H](NC(=O)[C@@H]1CCCN1C(=O)[C@@H](NC(=O)CNC(=O)CNC(=O)CNC(=O)[C@H](CO)NC(=O)[C@@H]1CCCN1C(=O)[C@H](CCCNC(=N)N)NC(=O)CNC(=O)[C@H](CCCCN)NC(=O)[C@@H](NC(=O)[C@H](CC(C)C)NC(=O)[C@H](Cc1c[nH]c2ccccc12)NC(=O)[C@H](C)NC(=O)[C@@H](NC(=O)[C@H](Cc1ccccc1)NC(=O)[C@H](CCC(=O)O)NC(=O)[C@H](CCCCN)NC(=O)[C@H](C)NC(=O)[C@H](C)NC(=O)[C@H](CCC(N)=O)NC(=O)CNC(=O)[C@H](CCC(=O)O)NC(=O)[C@H](CC(C)C)NC(=O)[C@H](Cc1ccc(O)cc1)NC(=O)[C@H](CO)NC(=O)[C@H](CO)NC(=O)[C@@H](NC(=O)[C@H](CC(=O)O)NC(=O)[C@H](CO)NC(=O)[C@@H](NC(=O)[C@H](Cc1ccccc1)NC(=O)[C@@H](NC(=O)CNC(=O)[C@H](CCC(=O)O)NC(=O)[C@H](C)NC(=O)[C@@H](N)Cc1c[nH]cn1)[C@@H](C)O)[C@@H](C)O)C(C)C)[C@@H](C)CC)C(C)C)[C@@H](C)CC)C(N)=O [Cmpd 4888]
[1]
  EC50: 0.17 nM

## CC[C@H](C)[C@H](NC(=O)[C@H](Cc1ccccc1)NC(=O)[C@H](CCC(=O)O)NC(=O)[C@H](CCCCN)NC(=O)[C@H](C)NC(=O)[C@H](C)NC(=O)[C@H](CCC(N)=O)NC(=O)CNC(=O)[C@H](CCC(=O)O)NC(=O)[C@H](CC(C)C)NC(=O)[C@H](Cc1ccc(O)cc1)NC(=O)[C@H](CO)NC(=O)[C@H](CO)NC(=O)[C@@H](NC(=O)[C@H](CC(=O)O)NC(=O)[C@H](CO)NC(=O)[C@@H](NC(=O)[C@H](Cc1ccccc1)NC(=O)[C@@H](NC(=O)CNC(=O)[C@H](CCC(=O)O)NC(=O)[C@H](C)NC(=O)[C@H](Cc1c[nH]cn1)NC(=O)COCCOCCNC(=O)[C@@H]1CCCN1C(=O)[C@H](C)NC(CCc1ccccc1)C(=O)O)[C@@H](C)O)[C@@H](C)O)C(C)C)C(=O)N[C@@H](C)C(=O)N[C@@H](Cc1c[nH]c2ccccc12)C(=O)N[C@@H](CC(C)C)C(=O)N[C@H](C(=O)N[C@@H](CCCCN)C(=O)NCC(=O)N[C@@H](CCCNC(=N)N)C(N)=O)C(C)C (stereo partly drawn) [Cmpd 4983, (R,S)-1-[N2-(1-carboxy-3-phenylpropyl)-L-ala]-L-pro-ado-GLP-1-(7-36) amide]
[2]
  plasma stability as compared to native GLP-1: increased plasma stability
[2]; second, narrower list of b152
  plasma stability as compared to native GLP-1: increased plasma stability

## CC[C@H](C)[C@H](NC(=O)[C@H](Cc1ccccc1)NC(=O)[C@H](CCC(=O)O)NC(=O)[C@H](CCCCN)NC(=O)[C@H](C)NC(=O)[C@H](C)NC(=O)[C@H](CCC(N)=O)NC(=O)CNC(=O)[C@H](CCC(=O)O)NC(=O)[C@H](CC(C)C)NC(=O)[C@H](Cc1ccc(O)cc1)NC(=O)[C@H](CO)NC(=O)[C@H](CO)NC(=O)[C@@H](NC(=O)[C@H](CC(=O)O)NC(=O)[C@H](CO)NC(=O)[C@@H](NC(=O)[C@H](Cc1ccccc1)NC(=O)[C@@H](NC(=O)CNC(=O)[C@H](CCC(=O)O)NC(=O)[C@H](C)NC(=O)[C@H](Cc1c[nH]cn1)NC(=O)COCCOCCNC(=O)COCCOCCNC(=O)[C@@H]1CCCN1C(=O)[C@H](C)NC(CCc1ccccc1)C(=O)O)[C@@H](C)O)[C@@H](C)O)C(C)C)C(=O)N[C@@H](C)C(=O)N[C@@H](Cc1c[nH]c2ccccc12)C(=O)N[C@@H](CC(C)C)C(=O)N[C@H](C(=O)N[C@@H](CCCCN)C(=O)NCC(=O)N[C@@H](CCCNC(=N)N)C(N)=O)C(C)C (stereo partly drawn) [Cmpd 4984, (R,S)-1-[N2-(1-carboxy-3-phenylpropyl)-L-ala]-L-pro-ado-ado-GLP-1-(7-36) amide]
[2]
  plasma stability as compared to native GLP-1: increased plasma stability

## CC[C@H](C)[C@H](NC(=O)[C@H](Cc1ccccc1)NC(=O)[C@H](CCC(=O)O)NC(=O)[C@H](CCCCN)NC(=O)[C@H](C)NC(=O)[C@H](C)NC(=O)[C@H](CCC(N)=O)NC(=O)CNC(=O)[C@H](CCC(=O)O)NC(=O)[C@H](CC(C)C)NC(=O)[C@H](Cc1ccc(O)cc1)NC(=O)[C@H](CO)NC(=O)[C@H](CO)NC(=O)[C@@H](NC(=O)[C@H](CC(=O)O)NC(=O)[C@H](CO)NC(=O)[C@@H](NC(=O)[C@H](Cc1ccccc1)NC(=O)[C@@H](NC(=O)CNC(=O)[C@H](CCC(=O)O)NC(=O)[C@H](C)NC(=O)[C@H](Cc1c[nH]cn1)NC(=O)COCCOCCN)[C@@H](C)O)[C@@H](C)O)C(C)C)C(=O)N[C@@H](C)C(=O)N[C@@H](Cc1c[nH]c2ccccc12)C(=O)N[C@@H](CC(C)C)C(=O)N[C@H](C(=O)N[C@@H](CCCCN)C(=O)NCC(=O)N[C@@H](CCCNC(=N)N)C(N)=O)C(C)C [Cmpd 4992]
[2]
  plasma stability as compared to native GLP-1: increased plasma stability
[2]; second, narrower list of b152
  plasma stability as compared to native GLP-1: increased plasma stability

## GLP-1-(7-37)-GG-(S)-2,6-diamino-1-(thiazolidin-2-cyano-3-y1)hexan-1-one amide (HAEGTFTSDVSSYLEGQAAKEFIAWLVKGRGGG; C-terminal cyano DPP4 inhibitor moiety, amide) [Cmpd 4845]
[1]
  EC50: 0.4 nM

## HGEGTFTSDLSKQVQEEAVRLFVEFLKN-NH2 [Cmpd 5035]
[1]
  EC50: 628 nM

## HGEGTFTSDLVKILEAEAVRKFIEFLKN-NH2 [Cmpd 5052]
[1]
  EC50: 4.5 nM

## HGEGTFTSDVTQQLEEEAVRLFIEWLKQGGPSSGAPPPS-NH2 [Cmpd 5099]
[1]
  EC50: 1.29 nM
[2]
  plasma stability as compared to native GLP-1: increased plasma stability
[2]; second, narrower list of b152
  plasma stability as compared to native GLP-1: increased plasma stability

## HGEGTFTSDVTEYLEEEAVRLFIEWLKQGGPSSGAPPPS-NH2 [Cmpd 5129]
[3]
  cAMP, CYCLASE GLP/GIP/CT (RIN) EC50: 1.09 nM

## HGEGTFTSDLVKILEAEAVRKFIEFLKNGGPSSGAPPPS-NH2 [Cmpd 5529]
[3]
  cAMP, GLP-1 CYCLASE (6-23) EC50: 0.388 nM

## HGEGTFTSDLSKQLEEEAVRLFIEWLKNGKPKKIRYA [Cmpd 5439]
[3]
  cAMP, GLP-1 CYCLASE (6-23) EC50: 0.17 nM

## HGEGTFTSDLSKQLEEEAVRLFIEWLKNGKPKKARYS [Cmpd 5441]
[3]
  cAMP, GLP-1 CYCLASE (6-23) EC50: 0.128 nM

## HGEGTFTSDLSKQLEEEAVRLFIEWLKNGKPAKIRYS [Cmpd 5443]
[3]
  cAMP, GLP-1 CYCLASE (6-23) EC50: 0.08 nM

## HGEGTFTSDLSKQLEEEAVRLFIEWLKNGKPKKIAYS [Cmpd 5440]
[3]
  cAMP, GLP-1 CYCLASE (6-23) EC50: 0.13 nM

## HGEGTFTSDLSKQLEEEAVRLFIEWLKNGKPKAIRYS [Cmpd 5442]
[3]
  cAMP, GLP-1 CYCLASE (6-23) EC50: 0.1 nM

## HGEGTFTSDLSKQLEEEAVRLFIEWLIKGKP [Cmpd 5227]
[3]
  cAMP, GLP-1 CYCLASE (6-23) EC50: 0.629 nM

## HGEGTFTSDLSKQLEEEAVRLFIEWLKNGGPSKEIIA [Cmpd 5444]
[3]
  cAMP, GLP-1 CYCLASE (6-23) EC50: 0.09 nM

## HGEGTFTSDLSKQLEEEAVRLFIEWLKNGGPSKEIAS [Cmpd 5445]
[3]
  cAMP, GLP-1 CYCLASE (6-23) EC50: 0.09 nM

## HGEGTFTSDLSKQLEEEAVRLFIEWLKNGGPSKAIIS [Cmpd 5446]
[3]
  cAMP, GLP-1 CYCLASE (6-23) EC50: 0.1 nM

## HGEGTFTSDLSKQVQEEAVRLFVEFLKN-NH2 [Cmpd 5035]
[3]
  cAMP, CYCLASE GLP/GIP/CT (RIN) EC50: 628 nM

## HGEGTFTSDLSKQLEEKAAKEFIEWLIQGGPSKEIIS [Cmpd 5101]
[3]
  cAMP, CYCLASE GLP/GIP/CT (RIN) EC50: 0.863 nM

## HGEGTFTSDLSKQLEEEAVRLFIEWLKNGKPGKGKIRYS [Cmpd 5295]
[3]
  cAMP, GLP-1 CYCLASE (6-23) EC50: 0.089 nM

## HGEGTFTSDLSKQLEEEAVRLFIEWLKNGKPGGKKIRYS [Cmpd 5451]
[3]
  cAMP, CYCLASE GLP/GIP/CT (RIN) EC50: 0.205 nM

Reference: patent US20100029554A1, “Composition and Methods for Treatment of Congestive Heart Failure” (Amylin Pharmaceuticals, Inc., priority 2006, published 2010)
